B1: Subtilisin BPN', P00782 (parent)
chain: MRGKKVWISLLFALALIFTMAFGSTSSAQAAGKSNGEKKYIVGFKQTMSTMSAAKKKDVISEKGGKVQKQFKYVDAASATLNEKAVKELKKDPSVAYVEEDHVAHAYAQSVPYGVSQIKAPALHSQGYTGSNVKVAVIDSGIDSSHPDLKVAGGASMVPSETNPFQDNNSHGTHVAGTVAALNNSIGVLGVAPSASLYAVKVLGADGSGQYSWIINGIEWAIANNMDVINMSLGGPSGSAALKAAVDKAVASGVVVVAAAGNEGTSGSSSTVGYPGKYPSVIAVGAVDSSNQRASFSSVGPELDVMAPGVSIQSTLPGNKYGAYNGTSMASPHVAGAAALILSKHPNWTNTQVRSSLENTTTKLGDSFYYGKGLINVQAAAQ

Variants of: B1
Settings: Bacillus amyloliquefaciens, pH 8, Thermal, DSC, Tris-HCl 5.0 mM, KCl 50 mM, reversible: yes, structure 1SUP, whole UniProt chain shown; for ddG of mutation (higher = less stable): 58.8 °C

Row | Variant | ddG of mutation (higher = less stable) | Tm | change of melting temperature, mutant - wild type (higher = more stable)
1 | MRGKKVWISLLFALALIFTMAFGSTSSAQAAGKSNGEKKYIVGFKQTMSTMSAAKKKDVISEKGGKVQKQFKYVDAASATLNEKAVKELKKDPSVAYVEEDHVAHAYAQSVPYGVSQIKAPALHSQGYTGSNVKVAVIDSGIDSSHPDLKVAGGASMVPSETNPFQDNNSHGTHVAGTVAALDNSIGVLGVAPSASLYAVKVLGADGSGQYSWIINGIEWAIANNMDVINMSLGGPSGSAALKAAVDKAVASGVVVVAAAGNEGTSGSSSTVGYPGKYPSVIAVGAVDSSNQRASFSSVGPELDVMAPGVSIQSTLPGNKYGAYNGTSMASPHVAGAAALILSKHPNWTNTQVRSSLENTTTKLGDSFYYGKGLINVQAAAQ [N183D] | -0.45 kcal/mol | 60.2 °C | 1.7 °C
2 | MRGKKVWISLLFALALIFTMAFGSTSSAQAAGKSNGEKKYIVGFKQTMSTMSAAKKKDVISEKGGKVQKQFKYVDAASATLNEKAVKELKKDPSVAYVEEDHVAHAYAQSVPYGVSQIKAPALHSQGYTGSNVKVAVIDSGIDSSHPDLKVAGGASMVPSETNPFQDNNSHGTHVAGTVAALNNSIGVLGVAPSASLYAVKVLGADGSGQYSWIINGIEWAIANNMDVINMSLGGPSGSAALKAAVDKAVASGVVVVAAAGNEGTSGSSSTVGYPAKYPSVIAVGAVDSSNQRASFSSVGPELDVMAPGVSIQSTLPGNKYGAYNGTSMASPHVAGAAALILSKHPNWTNTQVRSSLENTTTKLGDSFYYGKGLINVQAAAQ [G276A] | -0.3 kcal/mol | 59.6 °C | 1.1 °C
3 | MRGKKVWISLLFALALIFTMAFGSTSSAQAAGKSNGEKKYIVGFKQTMSTMSAAKKKDVISEKGGKVQKQFKYVDAASATLNEKAVKELKKDPSVAYVEEDHVAHAYAQSVPYGVSQIKAPALHSQGYTGSNVKVAVIDSGIDSSHPDLKVAGGASMVPSETNPFQDNNSHGTHVAGTVAALNNSIGVLGVAPSASLYAVKVLGADGSGQYSWIINGIEWAIANNMDVINMSLGGPSGSAALKAAVDKAVASGVVVVAAAGNEGTSGSSSTVGYPGKYPSVIAVGAVDSSNQRASFSSVGPELDVMAPGVSIQSTLPGNKYGAKNGTSMASPHVAGAAALILSKHPNWTNTQVRSSLENTTTKLGDSFYYGKGLINVQAAAQ [Y324K] | -0.72 kcal/mol | – | –
4 | MRGKKVWISLLFALALIFTMAFGSTSSAQAAGKSNGEKKYIVGFKQTMSTMSAAKKKDVISEKGGKVQKQFKYVDAASATLNEKAVKELKKDPSVAYVEEDHVAHAYAQSVPYGVSQIKAPALHSQGYTGSNVKVAVIDSGIDSSHPDLKVAGGASMVPSETNPFQDNNSHGTHVAGTVAALNNSIGVLGVAPSASLYAVKVLGADGSGQYSWIINGIEWAIANNMDVINMSLGGPSGSAALKAAVDKAVASGVVVVAAAGNEGTSGSSSTVGYPGKYPSVIAVGAVDSSNQRASFSSVGPELDVMAPGVSIQSTLPGNKYGAYSGTSMASPHVAGAAALILSKHPNWTNTQVRSSLENTTTKLGDSFYYGKGLINVQAAAQ [N325S] | -1.07 kcal/mol | 62.5 °C | 4 °C
5 | MRGKKVWISLLFALALIFTMAFGSTSSAQAAGKSNGEKKYIVGFKQTMSTMSAAKKKDVISEKGGKVQKQFKYVDAASATLNEKAVKELKKDPSVAYVEEDHVAHAYAQSVPYGVSQIKAPALHSQGYTGSNVKVAVIDSGIDSSHPDLKVAGGASFVPSETNPFQDNNSHGTHVAGTVAALNNSIGVLGVAPSASLYAVKVLGADGSGQYSWIINGIEWAIANNMDVINMSLGGPSGSAALKAAVDKAVASGVVVVAAAGNEGTSGSSSTVGYPGKYPSVIAVGAVDSSNQRASFSSVGPELDVMAPGVSIQSTLPGNKYGAYNGTSMASPHVAGAAALILSKHPNWTNTQVRSSLENTTTKLGDSFYYGKGLINVQAAAQ [M157F] | -0.48 kcal/mol | 60.3 °C | 1.8 °C
6 | MRGKKVWISLLFALALIFTMAFGSTSSAQAAGKSNGEKKYIVGFKQTMSTMSAAKKKDVISEKGGKVQKQFKYVDAASATLNEKAVKELKKDPSVAYVEEDHVAHAYAQSVPYGVSQIKAPALHSQGYTGSNVKVAVIDSGIDSSHPDLKVAGGASMVPSETNPFQDNNSHGTHVAGTVAALNNSIGVLGVAPSASLYAVKVLGADGSGQYSWIINGIEWAIANNMDVINMSLGGPSGSAALKAAVDKAVASGVVVVAAAGNEGTSGSSSTVGYPGKYPSVIAVGAVDSSNQRASFSSVGPELDVMAPGVSICSTLPGNKYGAYNGTSMASPHVAGAAALILSKHPNWTNTQVRSSLENTTTKLGDSFYYGKGLINVQAAAQ [Q313C] | -1.25 kcal/mol | 63.2 °C | 4.7 °C
